Source: patent US20230035798A1 (CAPELLA BIOSCIENCE, published 2023)
Residue numbers refer to the chain shown, from its start.

T1: membrane LIGHT G188A (human, UniProt O43557 1-240)
T1 construct: full-length LIGHT with the substitution on HEK293FF cells
T1 chain: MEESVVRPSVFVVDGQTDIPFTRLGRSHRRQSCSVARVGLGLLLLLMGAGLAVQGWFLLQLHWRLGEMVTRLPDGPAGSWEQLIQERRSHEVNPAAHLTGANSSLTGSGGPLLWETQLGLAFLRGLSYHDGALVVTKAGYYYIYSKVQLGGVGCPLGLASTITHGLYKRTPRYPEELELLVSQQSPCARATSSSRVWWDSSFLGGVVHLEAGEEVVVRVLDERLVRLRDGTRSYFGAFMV

T2: membrane LIGHT V196A (human, UniProt O43557 1-240)
T2 chain: T1 chain with A188G, V196A

T3: membrane LIGHT T191A (human, UniProt O43557 1-240)
T3 chain: T1 chain with A188G, T191A

T4: membrane LIGHT W197A (human, UniProt O43557 1-240)
T4 chain: T1 chain with A188G, W197A

T5: membrane LIGHT S193A (human, UniProt O43557 1-240)
T5 chain: T1 chain with A188G, S193A

T6: membrane LIGHT S192A (human, UniProt O43557 1-240)
T6 chain: T1 chain with A188G, S192A

T7: membrane LIGHT A190S (human, UniProt O43557 1-240)
T7 chain: T1 chain with A188G, A190S

B1: 2E08 (antibody, human IgG4, V domains shown)
VH: QVQMKESGAELVRPGVSVKISCKGSGYTFTDYAIHWVKQSHAKTLEWIGVISTYYGDASYNQKFKGKATMTVDKSSSTAYMELARLTSDDSAIYYCARSRGEYGNYDAMDYWGQGTSVTVSS
VL: DIVLTQSPASLAVSLGQRATISCKASQSVDYDGDSYMNWYQQKPGQPPKLLIYAASNLESGIPARFSGSGSGTDFTLNIHPVEEEDAATYYCQQSNEDPLTFGAGTKLELK
notes: chimeric human IgG4 (S-to-P, L-to-E at 248), human CL; also called Parental 2E08
B2: 2B11 (antibody, human IgG4, V domains shown)
VH: B1 VH with Q1E, M4L, K5V, T44S, D89E
VL: DIVLTQSPASLAVSLGQRATISCRASESVDSYGNSFMHWYQQKPGQPPKLLIYRASNLESGIPARFSGSGSRTDFTLTINPVEADDVATYYCQQSNEDPYTFGGGTKLEIK
notes: chimeric human IgG4 (S-to-P, L-to-E at 248), human CL; also called Parental 2B11
B3: 3E09 (antibody, V domains shown)
VH: EVQLVESGGGLVKPGGSLKLSCEASGFTFSDYYMYWVRQTPEKRLEWVAAIGDGGIYTYYADTVKGRFTISRDNAKNILYLQMSSLKSNDTAMYYCARGTGDGFAYWGQGTLVTVS
VL: B2 VL with R54L, I62V, N80D, V87A, S95N
notes: chimeric human IgG4 (S-to-P, L-to-E at 248), human CL; also called Parental 3E09
B4: 3A07 (antibody, human IgG4, V domains shown)
VH: QVQLQQSGAELVRPGAPVTLSCKASDYTFTDSEIHWVKQTPVHGLEWIGEIDPETGGTAYNQKFKGKATLTADKSSSTAYMELRSLTSEDSAVYYCSRETDYFFDYWGQGTTLTVSS
VL: ENVLTQSPAIMSASPGEKVTMTCSASSSVSYMYWYQQRPGSSPRLLIYDTSNLASGVPVRFSGSGSGTSYSLTISRMEAEDAATYYCQQWSSYPLTFGSGTKLEIK
notes: chimeric human IgG4 (S-to-P, L-to-E at 248), human CL; also called Parental 3A07
B5: 3B04 (antibody, human IgG4, V domains shown)
VH: B4 VH with S7P, P17S, D26G, S32Y, I34M, G57D, N61S, L83F
VL: DIQMTQTPASLSASVGETVTITCGASENIYGALNWYQRKQGKSPQLLIYGATNLADGMSSRFSGSGSGRQYSLKISSLHPDDFATYYCQNVLTTPWTFGGGTKLEIKR
notes: chimeric: mouse variable domains on human IgG4 HC (S-to-P and L-to-E at 248) and human CL; also called Parental 3B04; 3B04 chimeric
B6: 3D12 (antibody, human IgG4, V domains shown)
VH: B4 VH with S7P, P17S
VL: B5 VL with T7S, F83V, T93S
notes: chimeric: mouse variable domains on human IgG4 HC (S-to-P and L-to-E at 248) and human CL; also called Parental 3D12; 3D12 chimeric
B7: 3C10 (antibody, human IgG4, V domains shown)
VH: B4 VH with Q1E, P17S
VL: B4 VL with E1D, N2V, L4M, S7T, R38K, S99A, I105L
notes: chimeric human IgG4 (S-to-P, L-to-E at 248), human CL; also called Parental 3C10

Biological target: T1, membrane LIGHT G188A
Assay: flow cytometry, transfected HEK293FF, mAb at EC50
Experimental: (§1) The day of transfection the cells were seeded in a 24-well plate at 0.6×10⁶ cells/well. Lipofectamine 2000 (ThermoFisher scientific), 3 μl, was mixed with 50 μl OptiMEM medium (GIBCO) and then added to 50 μl Opti-MEM medium containing 3 ug plasmid DNA and incubated for 20 min at RT to form DNA-Lipofectamine 2000 complexes which were then added to the HEK293FF cells and incubated at 37° C., 5% CO₂ for 24 hours. For each construct, in duplicate, 0.60×10⁶ cells/well were used in a 96 well round bottom plate. Cells were centrifuged for 3 minutes at 300×g at 4° C., the supernatant discarded and the cells washed with 150 μl FACS buffer (0.5% FBS in phosphate buffered saline). This process was repeated 3 times. […] The wells were washed 3 times as above and 50 μl/well of goat anti-human IgG FITC (1:1500 dilution in FACS buffer, SIGMA F9512-2ML) or goat anti-mouse APC (1/500 dilution in FACS buffer, BDBioscience 550826), as appropriate, was added to the wells and incubated for 30 min at 4° C. protected from the light, with shaking. The cells were then washed as above, resuspended in 100 μl of FACS buffer and binding of the antibodies to the constructs was measured using flow cytometry and a total of 10,000 cells were acquired for each sample. Controls of buffer and secondary antibody only as well as HEK293FF non transfected cells were also used.

binding, % of WT [%]	Binder
44	B1
3	B2
35	B3
5	B4
20	B6
3	B7

Binder	binding, % of WT [%]
B5	6

biological target: T8, human LIGHT (TNFSF14), full length, membrane-bound (214E allele) (human, UniProt O43557 1-240); assay: flow cytometry, transfected HEK293FF, mAb at EC50
T8 construct: also called membrane LIGHT; human membrane LIGHT
Experimental: as §1

binding, % of WT [%]	Binder
100	B1
100	B2
100	B3
100	B4
100	B6
100	B7

Binder	binding, % of WT [%]
B5	100

Biological target: T2, membrane LIGHT V196A
Assay: flow cytometry, transfected HEK293FF, mAb at EC50
Experimental: as §1

binding, % of WT [%]	Binder
99	B1
73	B2
34	B3
77	B4
70	B6
78	B7

Binder	binding, % of WT [%]
B5	80

Biological target: T3, membrane LIGHT T191A
Assay: flow cytometry, transfected HEK293FF, mAb at EC50
Experimental: as §1

binding, % of WT [%]	Binder
22	B1
1	B2
88	B3
4	B4
8	B6
3	B7

Binder	binding, % of WT [%]
B5	2

Biological target: T4, membrane LIGHT W197A
Assay: flow cytometry, transfected HEK293FF, mAb at EC50
Experimental: as §1

binding, % of WT [%]	Binder
0	B1
0	B2
1	B3
1	B4
1	B6
0	B7

Binder	binding, % of WT [%]
B5	0

Biological target: T5, membrane LIGHT S193A
Assay: flow cytometry, transfected HEK293FF, mAb at EC50
Experimental: as §1

binding, % of WT [%]	Binder
0	B1
0	B2
0	B3
0	B4
0	B6
0	B7

Binder	binding, % of WT [%]
B5	0

Biological target: T6, membrane LIGHT S192A
Assay: flow cytometry, transfected HEK293FF, mAb at EC50
Experimental: as §1

binding, % of WT [%]	Binder
122	B1
96	B2
50	B3
41	B4
84	B6
35	B7

Binder	binding, % of WT [%]
B5	88

Biological target: T7, membrane LIGHT A190S
Assay: flow cytometry, transfected HEK293FF, mAb at EC50
Experimental: as §1

binding, % of WT [%]	Binder
93	B1
52	B2
97	B3
47	B4
82	B6
40	B7

Binder	binding, % of WT [%]
B5	68
